Consider six molecules from PMC10302205, “Saccharomyces cerevisiae Δ9-desaturase Ole1 forms a supercomplex with Slc1 and Dga1” (The Journal of Biological Chemistry, 2023).

Numbering of substitutions follows the chain as printed. Names and notes keep the numbering of the source.

One test addresses T1, Slc1-Cub-LexA-VP16 (S. cerevisiae, UniProt P33333 1-303).
T1 construct: Slc1, lysophosphatidic acid acyltransferase of S. cerevisiae; The end of the tag is read from the order of the printed label; also called Slc1 bait (strain YBG2); pTMBV4-SLC1; not shown: Cub-LexA-VP16, C-terminal, kept
T1 sequence (looked up): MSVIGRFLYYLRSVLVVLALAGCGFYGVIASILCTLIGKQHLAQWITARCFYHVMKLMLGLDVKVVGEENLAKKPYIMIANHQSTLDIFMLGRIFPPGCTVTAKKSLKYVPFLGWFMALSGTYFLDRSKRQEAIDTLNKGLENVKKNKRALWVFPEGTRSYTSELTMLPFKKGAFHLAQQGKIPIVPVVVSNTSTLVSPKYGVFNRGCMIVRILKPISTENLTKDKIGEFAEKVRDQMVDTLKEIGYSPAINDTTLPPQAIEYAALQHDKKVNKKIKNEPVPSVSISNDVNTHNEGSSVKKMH
Kind of test: two-hybrid; membrane yeast two-hybrid (split ubiquitin): plasmid-borne Slc1-Cub-LexA-VP16 as bait and NubG fusions as prey in NMY51; growth on SD-W-L-H-A with 6 mM 3-aminotriazole and β-galactosidase activity of cell extracts. Particulars: partners not purified.

Another test addresses T2, Ole1-Myc-Cub-LexA-VP16 (S. cerevisiae, UniProt P21147 1-510).
T2 construct: Ole1, Δ9 acyl-CoA (stearoyl-CoA) desaturase of S. cerevisiae; the endogenous chromosomal OLE1 gene, with the tag at its carboxyl end; The tag was put behind the chromosomal gene, so the whole protein is likely; also called Δ9 acyl-CoA desaturase Ole1; Ole1-Cub-LexA-VP16; not shown: Myc, C-terminal, kept; Cub-LexA-VP16, C-terminal, kept
T2 sequence (looked up): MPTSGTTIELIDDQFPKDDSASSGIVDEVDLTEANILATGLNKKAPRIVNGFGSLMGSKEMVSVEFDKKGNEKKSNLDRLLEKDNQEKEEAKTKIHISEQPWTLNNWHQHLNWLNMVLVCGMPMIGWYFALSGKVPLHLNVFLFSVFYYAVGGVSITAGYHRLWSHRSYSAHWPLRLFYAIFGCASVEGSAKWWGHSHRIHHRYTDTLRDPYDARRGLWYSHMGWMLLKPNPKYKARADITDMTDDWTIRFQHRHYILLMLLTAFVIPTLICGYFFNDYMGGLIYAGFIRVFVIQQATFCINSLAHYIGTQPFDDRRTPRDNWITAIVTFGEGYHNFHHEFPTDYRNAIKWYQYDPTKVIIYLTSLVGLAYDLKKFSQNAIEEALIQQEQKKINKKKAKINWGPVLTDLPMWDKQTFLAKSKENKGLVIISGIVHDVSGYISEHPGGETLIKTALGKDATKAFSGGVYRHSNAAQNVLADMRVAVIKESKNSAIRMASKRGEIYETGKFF
Kind of test: two-hybrid; integrated membrane yeast two-hybrid (split ubiquitin): Ole1-Myc-Cub-LexA-VP16 from the endogenous locus of strain YBG1 as bait, NubG fusions from plasmids as prey; growth on SD-W-H-A with 6 mM 3-aminotriazole and β-galactosidase activity of cell extracts.

B1: NubG-Gpt2 (enzyme, S. cerevisiae, UniProt P36148 1-743, looked up)
chain: MSAPAADHNAAKPIPHVPQASRRYKNSYNGFVYNIHTWLYDVSVFLFNILFTIFFREIKVRGAYNVPEVGVPTILVCAPHANQFIDPALVMSQTRLLKTSAGKSRSRMPCFVTAESSFKKRFISFFGHAMGGIPVPRIQDNLKPVDENLEIYAPDLKNHPEIIKGRSKNPQTTPVNFTKRFSAKSLLGLPDYLSNAQIKEIPDDETIILSSPFRTSKSKVVELLTNGTNFKYAEKIDNTETFQSVFDHLHTKGCVGIFPEGGSHDRPSLLPIKAGVAIMALGAVAADPTMKVAVVPCGLHYFHRNKFRSRAVLEYGEPIVVDGKYGEMYKDSPRETVSKLLKKITNSLFSVTENAPDYDTLMVIQAARRLYQPVKVRLPLPAIVEINRRLLFGYSKFKDDPRIIHLKKLVYDYNRKLDSVGLKDHQVMQLKTTKLEALRCFVTLIVRLIKFSVFAILSLPGSILFTPIFIICRVYSEKKAKEGLKKSLVKIKGTDLLATWKLIVALILAPILYVTYSILLIILARKQHYCRIWVPSNNAFIQFVYFYALLVFTTYSSLKTGEIGVDLFKSLRPLFVSIVYPGKKIEEIQTTRKNLSLELTAVCNDLGPLVFPDYDKLATEIFSKRDGYDVSSDAESSISRMSVQSRSRSSSIHSIGSLASNALSRVNSRGSLTDIPIFSDAKQGQWKSEGETSEDEDEFDEKNPAIVQTARSSDLNKENSRNTNISSKIASLVRQKREHEKKE
notes: Gpt2, glycerophosphate acyltransferase of S. cerevisiae; also called pNubG-GPT2; pADSL-NubG-GPT2; source: yeast two-hybrid fusion (split ubiquitin prey), from plasmid pADSL-NubG-GPT2 in S. cerevisiae; not shown: NubG, N-terminal, kept
Take B1: the “β-galactosidase activity, fold over Alg5-NubG” value in the test with Slc1-Cub-LexA-VP16 is about 10 fold over Alg5-NubG.

B2: NubG-Sct1 (enzyme, S. cerevisiae, UniProt P32784 1-759, looked up)
chain: MPAPKLTEKFASSKSTQKTTNYSSIEAKSVKTSADQAYIYQEPSATKKILYSIATWLLYNIFHCFFREIRGRGSFKVPQQGPVIFVAAPHANQFVDPVILMGEVKKSVNRRVSFLIAESSLKQPPIGFLASFFMAIGVVRPQDNLKPAEGTIRVDPTDYKRVIGHDTHFLTDCMPKGLIGLPKSMGFGEIQSIESDTSLTLRKEFKMAKPEIKTALLTGTTYKYAAKVDQSCVYHRVFEHLAHNNCIGIFPEGGSHDRTNLLPLKAGVAIMALGCMDKHPDVNVKIVPCGMNYFHPHKFRSRAVVEFGDPIEIPKELVAKYHNPETNRDAVKELLDTISKGLQSVTVTCSDYETLMVVQTIRRLYMTQFSTKLPLPLIVEMNRRMVKGYEFYRNDPKIADLTKDIMAYNAALRHYNLPDHLVEEAKVNFAKNLGLVFFRSIGLCILFSLAMPGIIMFSPVFILAKRISQEKARTALSKSTVKIKANDVIATWKILIGMGFAPLLYIFWSVLITYYLRHKPWNKIYVFSGSYISCVIVTYSALIVGDIGMDGFKSLRPLVLSLTSPKGLQKLQKDRRNLAERIIEVVNNFGSELFPDFDSAALREEFDVIDEEEEDRKTSELNRRKMLRKQKIKRQEKDSSSPIISQRDNHDAYEHHNQDSDGVSLVNSDNSLSNIPLFSSTFHRKSESSLASTSVAPSSSSEFEVENEILEEKNGLASKIAQAVLNKRIGENTAREEEEEEEEEEEEEEEEEEGKEGDA
notes: Sct1, glycerophosphate acyltransferase of S. cerevisiae; also called pNubG-SCT1; pADSL-NubG-SCT1; source: yeast two-hybrid fusion (split ubiquitin prey), from plasmid pADSL-NubG-SCT1 in S. cerevisiae; not shown: NubG, N-terminal, kept
Consider B2, for which the “β-galactosidase activity, fold of the negative control” value with Slc1-Cub-LexA-VP16 was 3 fold of the negative control. This molecule yielded a β-galactosidase activity, fold of the negative control Alg5-NubG (fold of the negative control) in the test with Ole1-Myc-Cub-LexA-VP16 of 2.

B3: NubG-Dga1 (full-length NubG-Dga1 fusion) (enzyme, S. cerevisiae, UniProt Q08650 1-418, looked up)
chain: MSGTFNDIRRRKKEEGSPTAGITERHENKSLSSIDKREQTLKPQLESCCPLATPFERRLQTLAVAWHTSSFVLFSIFTLFAISTPALWVLAIPYMIYFFFDRSPATGEVVNRYSLRFRSLPIWKWYCDYFPISLIKTVNLKPTFTLSKNKRVNEKNYKIRLWPTKYSINLKSNSTIDYRNQECTGPTYLFGYHPHGIGALGAFGAFATEGCNYSKIFPGIPISLMTLVTQFHIPLYRDYLLALGISSVSRKNALRTLSKNQSICIVVGGARESLLSSTNGTQLILNKRKGFIKLAIQTGNINLVPVFAFGEVDCYNVLSTKKDSVLGKMQLWFKENFGFTIPIFYARGLFNYDFGLLPFRAPINVVVGRPIYVEKKITNPPDDVVNHFHDLYIAELKRLYYENREKYGVPDAELKIVG
notes: Dga1, diacylglycerol acyltransferase of S. cerevisiae; DGA1 amplified from W303 genomic DNA; 418 residues by the printed ranges; also called pNubG-DGA1; pADSL-NubG-DGA1; source: yeast two-hybrid fusion (split ubiquitin prey), from plasmid pADSL-NubG-DGA1 in S. cerevisiae; not shown: NubG, N-terminal, kept
For B3, in the test with Slc1-Cub-LexA-VP16, the “β-galactosidase activity, fold over Alg5-NubG” value was determined as 17 fold over Alg5-NubG. This molecule also registered a β-galactosidase activity, fold over the negative control Alg5-NubG (fold over the negative control) in the test with Ole1-Myc-Cub-LexA-VP16 of 11.

B4: NubG-Dga1DEK (Dga1 D411A, E413A, K415A) (enzyme, S. cerevisiae, UniProt Q08650 1-418, looked up)
chain: B3 chain with D411A, E413A, K415A
notes: Dga1 of S. cerevisiae, charged-to-alanine mutant made in pADSL-NubG-DGA1 (the full-length fusion); source: yeast two-hybrid fusion (split ubiquitin prey), synthetic DNA fragment assembled into pADSL-NubG-DGA1, in S. cerevisiae; not shown: NubG, N-terminal, kept
For the molecule B4, in the test with Ole1-Myc-Cub-LexA-VP16 (partners not purified), the “β-galactosidase activity, % of wildtype Dga1” value was ~60 % of wildtype Dga1.

B5: NubG-Dga1KR (Dga1 K397A, R398A) (enzyme, S. cerevisiae, UniProt Q08650 1-418, looked up)
chain: B3 chain with K397A, R398A
notes: as for B4
As to B5, the “β-galactosidase activity, % of wildtype Dga1” value with Ole1-Myc-Cub-LexA-VP16 (partners not purified) was ~60 % of wildtype Dga1.

B6: NubG-Slc1 (enzyme, S. cerevisiae, UniProt P33333 1-303, looked up)
chain: T1 sequence (looked up)
notes: Slc1, lysophosphatidic acid acyltransferase of S. cerevisiae; 'the SLC1 open reading frame was amplified from S. cerevisiae genomic DNA'; also called pADSL-NubG-SLC1; source: yeast two-hybrid fusion (split ubiquitin prey), from plasmid pADSL-NubG-SLC1 in S. cerevisiae; not shown: NubG, N-terminal, kept
B6: the “β-galactosidase activity, fold over the negative control Alg5-NubG” value in the test with Ole1-Myc-Cub-LexA-VP16 (partners not purified) was 9 fold over the negative control.
